Laboratory results from the supplement of paper PMC10201428.
± gives the standard deviation of the averaged measurements.

Key:
[1] = tested on: VchCAST RNA-guided transposition machinery (E. coli BL21(DE3) host, lacZ target); assay: relative integration efficiency (T-LR orientation) vs wild-type transposon end (log2 (normalized fold change)); transposon end mutated: left end; higher = more efficient transposition
Outline: (§1)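 Each barcoded pool, 1549 left-end or 1849 right-end transposon variants in a pUC57 mini-transposon donor, went into E. coli BL21(DE3) with a T7-driven effector plasmid (CRISPR array, tniQ-cas8-cas7-cas6, tnsA-tnsB-tnsC). Plates contained 0.1 mM IPTG and were held at 37°C for 18 h. Input plasmids and genomic integration junctions were PCR-amplified and read by Illumina sequencing, with two biological output replicates and four reference barcodes. Relative integration efficiency is the fold change of output over input barcode abundance, normalised to the reference barcodes and log-transformed.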

[2] = tested on: VchCAST RNA-guided transposition machinery (E. coli BL21(DE3) host, lacZ target); assay: relative integration efficiency (T-RL orientation) vs wild-type transposon end (log2 (normalized fold change)); transposon end mutated: left end; higher = more efficient transposition
Outline: as §1

Row | Sequence | relative integration efficiency (log2) [1] | relative integration efficiency (log2) [2]
1 | AATGTTGTTGATGCAACCATAAAGTGATATTTAATAATTATTTATAATCAGCAACTTAACCACAAAACAACCATATATTGATATCTCACAAAAACCAACGCCCTGTCGCGGGCTGTGAATCGAGTATTTCAGCAAAACTACTGCAGTAAGAA | -1.71 ± 0.47 | -2.5 ± 0.88
2 | AATGTTGTTGATGCAACCATAAAGTGATATTTAATAATTATTTATAATCAGCAACTTAACCACAAAACAACCATATATTGATATCTCACAAAAACCAACGCCTGGTCGCGGGGGTGTCCGATCTGATTTCAGCAAAACTACTGCAGTAAGAA | -0.363 ± 1.2 | -2.38 ± 1.1
3 | AATGTTGTTGATGCAACCATAAAGTGATATTTAATAATTATTTATAATCAGCAACTTAACCACAAAACAACCATATATTGATATCTCACAAAACAAAACGCCTGGTCGCGGGGGTGTCCGATCTGATTTCAGCAAAACTACTGCAGTAAGAA | -0.638 ± 1.1 | -2.27 ± 1
4 | AATGTTGTTGATGCAACCATAAAGTGATATTTAATAATTATTTATAATCAGCAACTTAACCACAAAACAACCATATATTGATATCTCACAAAACAACACGCCTGGTCGCGGGGGTGTCCGATCTGATTTCAGCAAAACTACTGCAGTAAGAA | -0.741 ± 1.6 | -2.49 ± 0.9
5 | AATGTTGTTGATGCAACCATAAAGTGATATTTAATAATTATTTATAATCAGCAACTTAACCACAAAACAACCATATATTGATATCTCACAAAACAACCAGCCTGGTCGCGGGGGTGTCCGATCTGATTTCAGCAAAACTACTGCAGTAAGAA | -0.68 ± 0.94 | -2.22 ± 0.9
6 | AATGTTGTTGATGCAACCATAAAGTGATATTTAATAATTATTTATAATCAGCAACTTAACCACAAAACAACCATATATTGATATCTCACAAAACAACCATAAGGGTCGCGGGGGTGTCCGATCTGATTTCAGCAAAACTACTGCAGTAAGAA | -1.56 ± 1 | -1.87 ± 0.93
7 | AATGTTGTTGATGCAACCATAAAGTGATATTTAATAATTATTTATAATCAGCAACTTAACCACAAAACAACCATATATTGATATCTCACAAAACAACCATAAGTGTCGCGGGGGTGTCCGATCTGATTTCAGCAAAACTACTGCAGTAAGAA | -1.82 ± 0.77 | -2.05 ± 0.76
8 | AATGTTGTTGATGCAACCATAAAGTGATATTTAATAATTATTTATAATCAGCAACTTAACCACAAAACAACCATATATTGATATCTCACAAAACAACCATAAGTTGAGCGGGGGTGTCCGATCTGATTTCAGCAAAACTACTGCAGTAAGAA | -1.81 ± 0.51 | -1.32 ± 0.58
9 | AATGTTGTTGATGCAACCATAAAGTGATATTTAATAATTATTTATAATCAGCAACTTAACCACAAAACAACCATATATTGATATCTCACAAAACAACCATAAGTTGATAGGGGGTGTCCGATCTGATTTCAGCAAAACTACTGCAGTAAGAA | -0.256 ± 0.057 | -0.795 ± 0.62
10 | AATGTTGTTGATGCAACCATAAAGTGATATTTAATAATTATTTATAATCAGCAACTTAACCACAAAACAACCATATATTGATATCTCACAAAACAACCATAAGTTGATATGGGGTGTCCGATCTGATTTCAGCAAAACTACTGCAGTAAGAA | -0.611 ± 0.81 | -0.33 ± 0.14
11 | AATGTTGTTGATGCAACCATAAAGTGATATTTAATAATTATTTATAATCAGCAACTTAACCACAAAACAACCATATATTGATATCTCACAAAACAACCATAAGTTGATATGTGAATCGAGTATTTCAGCAAAACTACTGCAGTAAGAAAGTT | -0.00636 ± 0.11 | -0.276 ± 0.26
12 | AATGTTGTTGATGCAACCATAAAGTGATATTTAATAATTATTTATAATCAGCAACTTAACCACAAAACAACCATATATTGATATCTCACAAAACAACCATAAGTTGATATTGGGTGTCCGATCTGATTTCAGCAAAACTACTGCAGTAAGAA | -0.651 ± 0.46 | -0.13 ± 0.053
13 | AATGTTGTTGATGCAACCATAAAGTGATATTTAATAATTATTTATAATCAGCAACTTAACCACAAAACAACCATATATTGATATCTCACAAAACAACCATAAGTTGATATTGTGAATCGAGTATTTCAGCAAAACTACTGCAGTAAGAAAGT | -0.0935 ± 0.19 | -0.306 ± 0.15
14 | AATGTTGTTGATGCAACCATAAAGTGATATTTAATAATTATTTATAATCAGCAACTTAACCACAAAACAACCATATATTGATATCTCACAAAACAACCATAAGTTGATATTTGTGAATCGAGTATTTCAGCAAAACTACTGCAGTAAGAAAG | 0.0663 ± 0.15 | -0.116 ± 0.072
15 | AATGTTGTTGATGCAACCATAAAGTGATATTTAATAATTATTTATAATCAGCAACTTAACCACAAAACAACCATATATTGATATCTCACAAAACAACCATAAGTTGATATTTTGTGAATCGAGTATTTCAGCAAAACTACTGCAGTAAGAAA | 0.169 ± 0.12 | 0.0855 ± 0.0046
16 | AATGTTGTTGATGCAACCATAAAGTGATATTTAATAATTATTTATAATCAGCAACTTAACCACAAAACAACCATATATTGATATCTCACAAAACAACCATAAGTTGATCGGGGGTGTCCGATCTGATTTCAGCAAAACTACTGCAGTAAGAA | -1.32 ± 0.59 | -1.03 ± 0.49
17 | AATGTTGTTGATGCAACCATAAAGTGATATTTAATAATTATTTATAATCAGCAACTTAACCACAAAACAACCATATATTGATATCTCACAAAACAACCATAAGTTGATTGTGAATCGAGTATTTCAGCAAAACTACTGCAGTAAGAAAGTTA | -0.858 ± 0.1 | -0.574 ± 0.38
18 | AATGTTGTTGATGCAACCATAAAGTGATATTTAATAATTATTTATAATCAGCAACTTAACCACAAAACAACCATATATTGATATCTCACAAAACAACCATAAGTTGCGCGGGGGTGTCCGATCTGATTTCAGCAAAACTACTGCAGTAAGAA | -3.15 ± 1.6 | -1.74 ± 0.81
19 | AATGTTGTTGATGCAACCATAAAGTGATATTTAATAATTATTTATAATCAGCAACTTAACCACAAAACAACCATATATTGATATCTCACAAAACAACCATAAGTTTCGCGGGGGTGTCCGATCTGATTTCAGCAAAACTACTGCAGTAAGAA | -2.11 ± 1.5 | -2.22 ± 0.95
20 | AATGTTGTTGATGCAACCATAAAGTGATATTTAATAATTATTTATAATCAGCAACTTAACCACAAAACAACCATATATTGATATCTCACAAAACAACCATAATGGTCGCGGGGGTGTCCGATCTGATTTCAGCAAAACTACTGCAGTAAGAA | -1.31 ± 0.87 | -1.93 ± 0.81
21 | AATGTTGTTGATGCAACCATAAAGTGATATTTAATAATTATTTATAATCAGCAACTTAACCACAAAACAACCATATATTGATATCTCACAAAACAACCATACTGGTCGCGGGGGTGTCCGATCTGATTTCAGCAAAACTACTGCAGTAAGAA | -0.966 ± 1.7 | -2.24 ± 0.99
22 | AATGTTGTTGATGCAACCATAAAGTGATATTTAATAATTATTTATAATCAGCAACTTAACCACAAAACAACCATATATTGATATCTCACAAAACAACCATCCTGGTCGCGGGGGTGTCCGATCTGATTTCAGCAAAACTACTGCAGTAAGAA | -0.61 ± 0.64 | -1.99 ± 0.82
23 | AATGTTGTTGATGCAACCATAAAGTGATATTTAATAATTATTTATAATCAGCAACTTAACCACAAAACAACCATATATTGATATCTCACAAAACAACCCGCCTGGTCGCGGGGGTGTCCGATCTGATTTCAGCAAAACTACTGCAGTAAGAA | -1.63 ± 2.3 | -2.27 ± 0.81
24 | AATGTTGTTGATGCAACCATAAAGTGATATTTAATAATTATTTATAATCAGCAACTTAACCACAAAACAACCATATATTGATATCTCACAAAACACAACGCCTGGTCGCGGGGGTGTCCGATCTGATTTCAGCAAAACTACTGCAGTAAGAA | -0.789 ± 1.1 | -2.63 ± 1.3
25 | AATGTTGTTGATGCAACCATAAAGTGATATTTAATAATTATTTATAATCAGCAACTTAACCACAAAACAACCATATATTGATATCTCACAAAACCCAACGCCTGGTCGCGGGGGTGTCCGATCTGATTTCAGCAAAACTACTGCAGTAAGAA | -0.934 ± 0.6 | -2.31 ± 0.93
26 | AATGTTGTTGATGCAACCATAAAGTGATATTTAATAATTATTTATAATCAGCAACTTAACCACAAAACAACCATATATTGATATCTCACAAAAGTTGGTATTCAACTATAAAATGTGAATCGAGTATTTCAGCAAAACTACTGCAGTAAGAA | -0.838 ± 0.94 | -2.5 ± 0.79
27 | AATGTTGTTGATGCAACCATAAAGTGATATTTAATAATTATTTATAATCAGCAACTTAACCACAAAACAACCATATATTGATATCTCACAAACAACCATAAGTTGATATTTTTGTGAATCGAGTATTTCAGCAAAACTACTGCAGTAAGAAA | -0.446 ± 0.92 | -1.69 ± 0.68
28 | AATGTTGTTGATGCAACCATAAAGTGATATTTAATAATTATTTATAATCAGCAACTTAACCACAAAACAACCATATATTGATATCTCACAAACACCAACGCCTGGTCGCGGGGGTGTCCGATCTGATTTCAGCAAAACTACTGCAGTAAGAA | -0.664 ± 1.2 | -2.54 ± 0.9
29 | AATGTTGTTGATGCAACCATAAAGTGATATTTAATAATTATTTATAATCAGCAACTTAACCACAAAACAACCATATATTGATATCTCACAACAACCATAAGTTGATATTTTTGTGAATCGAGTATTTCAGCAAAACTACTGCAGTAAGAAAG | -1.51 ± 0.32 | -3.43 ± 0.95
